The values below come from article PMC3740589.

The target of this experiment is Bcl-2 (UniProt P10415). Put plainly: Flag-Beclin1 IP, Bcl-2 immunoblot. The following applies: reference: Flag-Beclin1 wild type; sites T119. On the technique in general: In western blotting, separated proteins are transferred to a membrane and probed.

As for “Beclin1 (from UniProt Q14457) Flag-Beclin1 T119A”, the “binding against the reference” value is “stronger”.
